B1: Steroid hormone receptor ERR2, residues 100 to 176; numbered along this chain, O95718 (parent)
chain: KRLCLVCGDIASGYHYGVASCEACKAFFKRTIQGNIEYSCPATNECEITKRRRKSCQACRFMKCLKVGMLKEGVRLD

Variants of: B1
Assay: abundance fitness (aPCA) (normalised: wild type 0, dead -1); higher = more abundant; growth selection in yeast, the domain comes from the species named
Details: Homo sapiens

Abundance fitness of substitutions, site by site:
G8: M -0.201 | T -0.077 | F -0.274 | S -0.117 | V -1.11 | Y -0.132 | E 0.006 | H -0.102 | Q 0.086 | W -0.374 | N -0.758 | A -0.101 | L -0.091 | I -0.636 | P -0.725 | C -0.381 | D -0.096
C4: H -0.956 | Y -0.426 | L -0.8 | A -0.801 | S -0.824 | P -0.938 | M -0.72 | E -0.634 | G -0.696 | W -0.934 | D -1.1 | T -0.79 | R -0.792 | Q -0.759 | V -0.917 | K -0.66 | F -1.09 | I -0.956
D9: R -0.508 | I -0.369 | P -0.894 | W -0.301 | V -0.43 | L -0.454 | F -0.492 | C -0.829 | N -0.365 | S -0.36 | Y -0.351 | H -0.365 | G -0.208 | Q -0.143 | M -0.216
L5: A -0.192 | V -0.424 | P -0.358 | N -0.246 | I -0.333 | Y -0.186 | R -0.197 | C -0.375 | M -0.139 | K -0.143 | F -0.133 | W -0.332 | G -0.341 | S -0.233 | Q -0.094 | H -0.351 | T -0.031
A11: H -0.691 | C -0.177 | I -0.377 | D -0.241 | N -0.153 | L -0.311 | P -0.542 | G -0.013 | E -0.11 | V -0.289 | Q -0.217 | T -0.321 | F -0.213 | M -0.103 | R -0.516 | S 0.067 | K -0.424 | Y -0.128
L3: Y 0.219 | S -0.062 | V -0.036 | W -0.446 | R -0.152 | Q -0.055 | T -0.025
I10: S -0.033 | F 0.056 | V 0.242 | Y -0.029 | W 0.074 | K 0.037 | R -0.046 | A 0.275 | D 0.195 | H -0.011 | C -0.058 | P 0.065 | M -0.065 | T 0.02 | L -0.139 | N -0.393 | E 0.045
S12: Y -0.32 | T -0.138 | W -0.253 | A 0.031 | E -0.02 | N -0.019 | Q 0.115 | L -0.156 | G -0.023 | R -0.026 | C 0.155 | P -0.161 | V 0.029 | H 0.082 | D 0.022 | M -0.118 | I -0.327
V6: W -0.751 | S -0.713 | E -0.612 | P -0.978 | D -0.934 | H -1.18 | T -0.51 | N -0.826 | R -0.739 | A -0.497 | M -1.01 | L -0.836 | G -0.768 | C -0.684 | K -0.211 | Q -0.781 | Y -0.57
G13: H -0.759 | C -0.947 | D -0.02 | F -0.27 | I 0.038 | A -0.751 | K -0.336
C7: R -0.586 | V -0.976 | L -1.17 | G -0.96 | K -1.19 | D -0.602 | W -1.22 | F -0.362 | A -0.775 | P -0.673 | Q -0.918 | H -1 | S -0.726 | E -0.874 | Y -0.993 | I -1.05 | N -0.635
